The record followed here is US20250000946A1 (WUXI BIOLOGICS IRELAND, published 2025).

Changes are numbered by the printed parent chain. Names and notes keep the numbering of the source. Read-outs that look alike come from different tables or passages of the source.

Test [1] concerns the target T1, Human IL-2Rβ/γ (intermediate affinity IL-2 receptor) (human, UniProt P14784 27-551; P31785 23-369).
T1 construct: whole, on cells; also called IL-2Rβ/γc; IL-2Rβ (CD122) and γ (CD132)
T1 sequence (looked up) 1: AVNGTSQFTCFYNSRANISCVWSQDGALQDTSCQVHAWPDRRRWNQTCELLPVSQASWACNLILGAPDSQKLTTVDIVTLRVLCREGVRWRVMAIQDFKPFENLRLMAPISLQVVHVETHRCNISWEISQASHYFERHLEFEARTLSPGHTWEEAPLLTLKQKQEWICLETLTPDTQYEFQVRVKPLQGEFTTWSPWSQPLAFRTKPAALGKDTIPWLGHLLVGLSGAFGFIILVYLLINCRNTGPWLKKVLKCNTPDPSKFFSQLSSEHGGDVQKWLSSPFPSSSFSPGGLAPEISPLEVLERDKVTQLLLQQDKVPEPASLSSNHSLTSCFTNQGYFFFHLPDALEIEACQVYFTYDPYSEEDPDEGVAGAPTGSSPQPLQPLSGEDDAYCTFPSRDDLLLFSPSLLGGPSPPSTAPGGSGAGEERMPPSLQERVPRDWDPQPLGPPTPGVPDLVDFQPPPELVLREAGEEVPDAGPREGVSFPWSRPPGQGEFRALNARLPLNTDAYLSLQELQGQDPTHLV
T1 sequence (looked up) 2: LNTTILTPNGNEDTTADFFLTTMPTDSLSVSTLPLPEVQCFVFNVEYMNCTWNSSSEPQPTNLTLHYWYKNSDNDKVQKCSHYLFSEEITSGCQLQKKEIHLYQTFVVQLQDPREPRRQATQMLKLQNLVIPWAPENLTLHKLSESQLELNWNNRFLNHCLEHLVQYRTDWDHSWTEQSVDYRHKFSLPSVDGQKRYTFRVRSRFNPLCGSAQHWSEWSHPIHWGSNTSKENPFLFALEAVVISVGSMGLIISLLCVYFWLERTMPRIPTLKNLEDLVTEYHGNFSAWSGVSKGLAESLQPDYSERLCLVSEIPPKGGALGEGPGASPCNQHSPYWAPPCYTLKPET
Briefly: FACS, HH cells. The procedure:
(§1) Human cutaneous T cell lymphoma HH cells, malignant non-Hodgkin's lymphoma NK92 cells and cutaneous T cell lymphoma MJ20 cells were used for binding assay. They both constitutively express IL-2Rβ (CD122) and […] (CD132), and NK92 and MJ20 also expresses IL-2Rα (CD25). HH, NK92 and MJ20 cells were cultured following ATCC guidance, then transferred to a 96-plate for binding analysis. Cells were incubated with IL-2/Fc fusion proteins at the indicated concentrations for 30 min at 4° C. to avoid internalization. Binding was detected by 2nd antibody of PE-anti-human Fc at 4° C. for another 30 min. The median fluorescence intensity (MFI) on HH and NK92 cells was measured using FACS.
On the technique in general: A flow cytometer gives signals particle by particle.

For test [2], the target named is T2, Human IL-2Rα/β/γ complex (high affinity IL-2 receptor) (human, UniProt P01589 22-272; P14784 27-551; P31785 23-369).
T2 construct: whole, on cells
T2 sequence (looked up) 1: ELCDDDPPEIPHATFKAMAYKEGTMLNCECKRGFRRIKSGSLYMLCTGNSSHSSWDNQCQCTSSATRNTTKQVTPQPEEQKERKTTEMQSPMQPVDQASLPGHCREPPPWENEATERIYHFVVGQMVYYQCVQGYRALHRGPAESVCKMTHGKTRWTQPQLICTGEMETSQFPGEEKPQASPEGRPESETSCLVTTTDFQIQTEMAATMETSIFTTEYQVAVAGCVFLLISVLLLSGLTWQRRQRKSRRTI
T2 sequence (looked up) 2: T1 sequence (looked up) 1
T2 sequence (looked up) 3: T1 sequence (looked up) 2
Briefly: FACS, NK92 cells. In a few lines:
(§2)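 Readout is median fluorescence intensity by FACS after PE-anti-human Fc detection of IL-2/Fc fusion proteins bound to cells. Binding was done for 30 min at 4° C. to avoid internalization, with secondary staining for a further 30 min at 4° C.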

Test [3] addresses T1, Human IL-2Rβ/γ (intermediate affinity …). Briefly: cell-based or functional assay.
Test [4] concerns the target T2, Human IL-2Rα/β/γ complex (high affinity …). Briefly: cell-based or functional assay.
For test [5], the target named is T1, Human IL-2Rβ/γ (intermediate affinity …). Briefly: FACS, HH cells; EC50 fold vs T2U0.E44-1. As to the method:
as §1

The target in test [6] is T2, Human IL-2Rα/β/γ complex (high affinity …). Briefly: FACS, NK92 cells; EC50 fold vs T2U0.E44-1. In a few lines: as §2
Test [7] addresses T1, Human IL-2Rβ/γ (intermediate affinity …). Briefly: FACS, HH cells. In a few lines:
as §2
The source holds these as a separate data set.

Test [8] addresses T2, Human IL-2Rα/β/γ complex (high affinity …). Briefly: FACS, MJ20 cells. The procedure: as §1
The target of test [9] is T1, Human IL-2Rβ/γ (intermediate affinity …). Briefly: cell-based or functional assay. This is another data set of the same source.
Test [10] deals with T2, Human IL-2Rα/β/γ complex (high affinity …). Briefly: cell-based or functional assay. The source holds these as a separate data set.
Test [11] has as its target T1, Human IL-2Rβ/γ (intermediate affinity …). Briefly: FACS, HH cells; EC50 fold vs T2U0.E44-1. In a few lines: as §2
This is another data set of the same source.

Test [12] concerns the target T2, Human IL-2Rα/β/γ complex (high affinity …). Briefly: FACS, MJ20 cells; EC50 fold vs T2U0.E44-1. The procedure:
as §1

B1: W3XX115-T2U0.E44-15.uIgG4V1 (Fc fusion)
chain: APTSSSTKKTQLQLEHLLLDLQMILNGINNYKNPKLTRMLTVKFYMPKKATELKHLQCLEEELKPLEEVLNLAQSKNFHLRPRDLISNINVIVLELKGSETTFMCEYADETATIVEFLNRWITFCQSIIESKYGPPCPPCPAPEFLGGPSVFLFPPKPKDTLMISRTPEVTCVVVDVSQEDPEVQFNWYVDGVEVHNAKTKPREEQFNSTYRVVSVLTVLHQDWLNGKEYKCKVSNKGLPSSIEKTISKAKGQPREPQVYTLPPCQEEMTKNQVSLWCLVKGFYPSDIAVEWESNGQPENNYKTTPPVLDSDGSFFLYSRLTVDKSRWQEGNVFSCSVMHEALHNHYTQKSLSLSLG
heavy: EIQLQQSGPELVKPGASVKVSCKASGYSFTDYNMYWVKQSHGESLEWIGYIDPYNGGTRYNQKFKGKATLTVDKSSSTAFMHLNSLTSEDSAVYYCARNGHWDGAWFAYWGQGTLVTVSAASTKGPSVFPLAPCSRSTSESTAALGCLVKDYFPEPVTVSWNSGALTSGVHTFPAVLQSSGLYSLSSVVTVPSSSLGTKTYTCNVDHKPSNTKVDKRVESKYGPPCPPCPAPEFLGGPSVFLFPPKPKDTLMISRTPEVTCVVVDVSQEDPEVQFNWYVDGVEVHNAKTKPREEQFNSTYRVVSVLTVLHQDWLNGKEYKCKVSNKGLPSSIEKTISKAKGQPREPQVCTLPPSQEEMTKNQVSLSCAVKGFYPSDIAVEWESNGQPENNYKTTPPVLDSDGSFFLVSRLTVDKSRWQEGNVFSCSVMHEALHNHYTQKSLSLSLG
light: DIQMNQSPSSLSASLGDTITITCHASQNINVWLSWYQQKPGNIPKLLIYKASNLHTGVPSRFSGSRSGTGFTLTISSLQPEDIATYYCHQGQSYPFTFGSGTKLEIKRTVAAPSVFIFPPSDEQLKSGTASVVCLLNNFYPREAKVQWKVDNALQSGNSQESVTEQDSKDSTYSLSSTLTLSKADYEKHKVYACEVTHQGLSSPVTKSFNRGEC
notes: IL-2 del STLT and F42V; E44 format, IgG4
One may read the EC50 as the concentration giving half of the maximal effect. In test [1], B1 returned an EC50 of around 470 nM. Further, the EC50 in test [2] amounted to 2740 nM. In test [3], the “Human CD8+ T Potency EC50 (STAT5 phosphorylation)” value (from here on “Human CD8+ T Potency EC50”) turned out to be 312 nM and the “Human CD8+ T Potency reduction” value is 30.3 fold. Besides, in test [4], the “Human Treg Potency EC50 (STAT5 phosphorylation)” value (“Human Treg Potency EC50” for short) was 54.9 nM and the “Human Treg Potency reduction” value turned out to be 4620 fold. In addition, the Affinity reduction in [5] turned out to be 18.8 fold. Also, the Affinity reduction in test [6] worked out at 91.6 fold.

B2: W3XX115-T2U0.E44-19.uIgG4V1 (Fc fusion)
chain: B1 chain with V42M
heavy: B1 heavy
light: B1 light
notes: IL-2 del STLT and F42M; E44 format, IgG4
Take B2: the half-maximal effective concentration (EC50) in test [1] came to 398 nM; in test [2] it was 522 nM. Further, the “Human CD8+ T Potency EC50” value in test [3] came to 185 nM. The “Human CD8+ T Potency reduction” value in test [3] was determined as 18 fold. Besides, the “Human Treg Potency EC50” value in test [4] was found to be 0.53 nM. Besides, the “Human Treg Potency reduction” value in [4] came to 44.5 fold. Also, the Affinity reduction in test [5] turned out to be 15.9 fold; in test [6], 74.6 fold.

B3: W3XX115-T2U0.E44-39.uIgG4V322 (Fc fusion)
chain: B1 chain with V42F, I128A, F145A, L146A
heavy: B1 heavy with F234A, L235A
light: B1 light
notes: IL-2 del STLT and I128A; E44 format, IgG4 FALA
On to B3, for which the 50% effective concentration (EC50) in test [7] is 355 nM. The concentration for a half-maximal effect (EC50) in [8] turned out to be 74200 nM. Besides, in test [9], the “Potency in human CD8+ T EC50” value worked out at 99.9 nM and the “Potency reduction (CD8+ T)” value amounted to 9.8 fold. In test [10], the “Potency in human Treg EC50” value turned out to be 2 nM and the “Potency reduction (Treg)” value was found to be 1020 fold. The Affinity reduction in test [11] amounted to 6.8 fold. For the same molecule, the Affinity reduction in test [12] stood at 1770 fold.

B4: W3XX115-T2U0.E44-20.uIgG4V1 (Fc fusion)
chain: B1 chain with R38W, V42F
heavy: B1 heavy
light: B1 light
notes: IL-2 del STLT and R38W; E44 format, IgG4
B4 yielded a concentration giving a half-maximal response (EC50) in [1] of 336 nM. This molecule also displayed an EC50 in test [2] of 232 nM. In addition, in test [3], the “Human CD8+ T Potency EC50” value came out at 323 nM and the “Human CD8+ T Potency reduction” value is 31.4 fold. In test [4], the “Human Treg Potency EC50” value came to 2.06 nM and the “Human Treg Potency reduction” value was 173 fold. Besides, the Affinity reduction in test [5] was 13.5 fold. In test [6], this molecule had an Affinity reduction of 33.1 fold.

B5: W3XX115-T2U0.E44-36.uIgG4V322 (Fc fusion)
chain: B1 chain with V42F, S127D, F145A, L146A
heavy: B1 heavy with F234A, L235A
light: B1 light
notes: IL-2 del STLT and S127D; E44 format, IgG4 FALA
Consider B5, for which the EC50 in [7] was 1320 nM; in test [8], 98.5 nM. In [9], the “Potency in human CD8+ T EC50” value is around 12.2 nM. In test [10], the “Potency in human Treg EC50” value worked out at 0.1 nM. For the same molecule, in test [10], the “Potency reduction (Treg)” value came to 52.2 fold. Besides, the Affinity reduction came out at 25.1 fold in test [11] and 2.4 fold in [12].

B6: W3XX115-T2U0.E44-16.uIgG4V1 (Fc fusion)
chain: B1 chain with V42I
heavy: B1 heavy
light: B1 light
notes: IL-2 del STLT and F42I; E44 format, IgG4
For B6, the EC50 in test [1] was 472 nM. For the same molecule, the concentration for a half-maximal effect (EC50) in test [2] was around 310 nM. Also, in [3], the “Human CD8+ T Potency EC50” value came to 251 nM and the “Human CD8+ T Potency reduction” value was 24.4 fold. Moreover, in [4], the “Human Treg Potency EC50” value came out at 31.2 nM and the “Human Treg Potency reduction” value was 2620 fold. Moreover, in test [5], the Affinity reduction was determined as 18.9 fold. Moreover, in test [6], the Affinity reduction stood at 44.3 fold.
